Measurements from patent EP1899377B1 (GLAXO GROUP LIMITED, dated 2012).
Where two headings read alike, the source gives them in different places. Blank lines part the entries; values can stand above or below the binder they belong to.

Assays:
[1] = biological target: T1, GST-human NOGO-A56 (human, UniProt Q9NQC3 586-785); assay: SPR off-rate ranking, supernatant from small-scale transient transfection over immobilised GST-human NOGO-A56; single experiment
T1 construct: GST-tagged fusion expressed in E. coli BL21 from pGEX-6P1; also called hNOGO; human NOGO 5+6 GST; not shown: Glutathione S-transferase tag encoded by vector pGEX-6P1 (N-terminal, with vector linker)
T1 sequence: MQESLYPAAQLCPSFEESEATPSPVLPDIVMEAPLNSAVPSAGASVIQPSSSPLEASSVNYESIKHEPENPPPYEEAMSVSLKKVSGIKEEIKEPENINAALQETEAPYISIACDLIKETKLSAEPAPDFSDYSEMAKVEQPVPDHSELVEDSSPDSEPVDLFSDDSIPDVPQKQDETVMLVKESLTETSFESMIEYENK

[2] = biological target: T1, GST-human NOGO-A56; assay: SPR (Biacore), GST-human NOGO-A56 immobilised, purified antibody as analyte; single experiment
[3] = biological target: T1, GST-human NOGO-A56; assay: as above; remark: listed apart in the source
[4] = biological target: T1, GST-human NOGO-A56; assay: as above; remark: listed apart in the source

koff [1]: 0.00342 s⁻¹
B2: H23Lc (antibody, human IgG1, kappa, V domains shown)
VH: QVQLVQSGAEVKKPGASVKVSCKASGYTFTSYWMHWVKQRPGQGLEWIGNINPSNGGTNYNEKFKSKATMTVDTSTSTAYMELSSLRSEDTAVYYCELGQGYWGQGTLVTVSS
VL: DIVITQDELSNPVTSGESVSISCRSSKSLLYKDGKTYLNWFLQRPGQSPQLLIYLMSTRASGVSDRFSGSGSGTDFTLEISRVKAEDVGVYYCQQLVEYPLTFGAGTKLELKR

koff [1]: 0.00569 s⁻¹
B3: H21Lc (antibody, human IgG1, kappa, V domains shown)
VH: QVQLVQSGAEVKKPGASVKVSCKASGYTFTSYWMHWVRQRPGQGLEWIGNINPSNGGTNYNEKFKSKATMTRDTSTSTAYMELSSLRSEDTAVYYCELGQGYWGQGTLVTVSS
VL: DIVITQDELSNPVTSGESVSISCRSSKSLLYKDGKTYLNWFLQRPGQSPQLLIYLMSTRASGVSDRFSGSGSGTDFTLEISRVKAEDVGVYYCQQLVEYPLTFGAGTKLELKR

koff [1]: 0.00383 s⁻¹
B4: H24Lc (antibody, human IgG1, kappa, V domains shown)
VH: QVQLVQSGAEVKKPGASVKVSCKASGYTFTSYWMHWVKQRPGQGLEWIGNINPSNGGTNYNEKFKSKATLTVDTSTSTAYMELSSLRSEDTAVYYCELGQGYWGQGTLVTVSS
VL: DIVITQDELSNPVTSGESVSISCRSSKSLLYKDGKTYLNWFLQRPGQSPQLLIYLMSTRASGVSDRFSGSGSGTDFTLEISRVKAEDVGVYYCQQLVEYPLTFGAGTKLELKR

koff [1]: 0.00507 s⁻¹
B6: H20Lc (antibody, human IgG1, kappa, V domains shown)
VH: QVQLVQSGAEVKKPGASVKVSCKASGYTFTSYWMHWVRQAPGQGLEWIGNINPSNGGTNYNEKFKSKATMTRDTSTSTAYMELSSLRSEDTAVYYCELGQGYWGQGTLVTVSS
VL: DIVITQDELSNPVTSGESVSISCRSSKSLLYKDGKTYLNWFLQRPGQSPQLLIYLMSTRASGVSDRFSGSGSGTDFTLEISRVKAEDVGVYYCQQLVEYPLTFGAGTKLELKR

koff [1]: 0.00606 s⁻¹
Kd [2]: 3.8 nM
koff [2]: 0.0064 s⁻¹
kon [2]: 1.9e+06 M⁻¹ s⁻¹
Kd [4]: 1.99 nM
koff [4]: 0.00587 s⁻¹
kon [4]: 2.95e+06 M⁻¹ s⁻¹
B8: H23L16 (antibody, human IgG1, kappa, V domains shown)
VH: QVQLVQSGAEVKKPGASVKVSCKASGYTFTSYWMHWVKQRPGQGLEWIGNINPSNGGTNYNEKFKSKATMTVDTSTSTAYMELSSLRSEDTAVYYCELGQGYWGQGTLVTVSS
VL: DIVMTQSPLSNPVTLGQPVSISCRSSKSLLYKDGKTYLNWFLQRPGQSPQLLIYLMSTRASGVPDRFSGGGSGTDFTLKISRVEAEDVGVYYCQQLVEYPLTFGQGTKLEIKR
notes: human gamma1 mutated constant region, human kappa

koff [1]: 0.00956 s⁻¹
B11: H23L13 (antibody, human IgG1, kappa, V domains shown)
VH: QVQLVQSGAEVKKPGASVKVSCKASGYTFTSYWMHWVKQRPGQGLEWIGNINPSNGGTNYNEKFKSKATMTVDTSTSTAYMELSSLRSEDTAVYYCELGQGYWGQGTLVTVSS
VL: DIVMTQSPLSLPVTLGQPASISCRSSKSLLYKDGKTYLNWFQQRPGQSPQLLIYLMSTRASGVPDRFSGGGSGTDFTLKISRVEAEDVGVYYCQQLVEYPLTFGQGTKLEIKR

koff [1]: 0.012 s⁻¹
B12: H21L13 (antibody, human IgG1, kappa, V domains shown)
VH: QVQLVQSGAEVKKPGASVKVSCKASGYTFTSYWMHWVRQRPGQGLEWIGNINPSNGGTNYNEKFKSKATMTRDTSTSTAYMELSSLRSEDTAVYYCELGQGYWGQGTLVTVSS
VL: DIVMTQSPLSLPVTLGQPASISCRSSKSLLYKDGKTYLNWFQQRPGQSPQLLIYLMSTRASGVPDRFSGGGSGTDFTLKISRVEAEDVGVYYCQQLVEYPLTFGQGTKLEIKR

koff [1]: 0.00996 s⁻¹
B13: H24L13 (antibody, human IgG1, kappa, V domains shown)
VH: QVQLVQSGAEVKKPGASVKVSCKASGYTFTSYWMHWVKQRPGQGLEWIGNINPSNGGTNYNEKFKSKATLTVDTSTSTAYMELSSLRSEDTAVYYCELGQGYWGQGTLVTVSS
VL: DIVMTQSPLSLPVTLGQPASISCRSSKSLLYKDGKTYLNWFQQRPGQSPQLLIYLMSTRASGVPDRFSGGGSGTDFTLKISRVEAEDVGVYYCQQLVEYPLTFGQGTKLEIKR

koff [1]: 0.00585 s⁻¹
Kd [2]: 3.7 nM
koff [2]: 0.0069 s⁻¹
kon [2]: 1.9e+06 M⁻¹ s⁻¹
Kd [4]: 2.49 nM
koff [4]: 0.00572 s⁻¹
kon [4]: 2.3e+06 M⁻¹ s⁻¹
B17: H24L16 (antibody, human IgG1, kappa, V domains shown)
VH: QVQLVQSGAEVKKPGASVKVSCKASGYTFTSYWMHWVKQRPGQGLEWIGNINPSNGGTNYNEKFKSKATLTVDTSTSTAYMELSSLRSEDTAVYYCELGQGYWGQGTLVTVSS
VL: DIVMTQSPLSNPVTLGQPVSISCRSSKSLLYKDGKTYLNWFLQRPGQSPQLLIYLMSTRASGVPDRFSGGGSGTDFTLKISRVEAEDVGVYYCQQLVEYPLTFGQGTKLEIKR
notes: as for B8

koff [1]: 0.00467 s⁻¹
B18: H22Lc (antibody, human IgG1, kappa, V domains shown)
VH: QVQLVQSGAEVKKPGASVKVSCKASGYTFTSYWMHWVKQRPGQGLEWIGNINPSNGGTNYNEKFKSKATMTRDTSTSTAYMELSSLRSEDTAVYYCELGQGYWGQGTLVTVSS
VL: DIVITQDELSNPVTSGESVSISCRSSKSLLYKDGKTYLNWFLQRPGQSPQLLIYLMSTRASGVSDRFSGSGSGTDFTLEISRVKAEDVGVYYCQQLVEYPLTFGAGTKLELKR

Continued, binder first:

B1: H22L16 (antibody, human IgG1, kappa, V domains shown)
VH: QVQLVQSGAEVKKPGASVKVSCKASGYTFTSYWMHWVKQRPGQGLEWIGNINPSNGGTNYNEKFKSKATMTRDTSTSTAYMELSSLRSEDTAVYYCELGQGYWGQGTLVTVSS
VL: DIVMTQSPLSNPVTLGQPVSISCRSSKSLLYKDGKTYLNWFLQRPGQSPQLLIYLMSTRASGVPDRFSGGGSGTDFTLKISRVEAEDVGVYYCQQLVEYPLTFGQGTKLEIKR
notes: as for B8
koff [1]: 0.00778 s⁻¹
Kd [2]: 1.47 nM
koff [2]: 0.0069 s⁻¹
kon [2]: 4.9e+06 M⁻¹ s⁻¹
Kd [3]: 1.33 nM
koff [3]: 0.00759 s⁻¹
kon [3]: 5.69e+06 M⁻¹ s⁻¹
Kd [4]: 1.32 nM
koff [4]: 0.00767 s⁻¹
kon [4]: 5.83e+06 M⁻¹ s⁻¹

B5: H19Lc (antibody, human IgG1, kappa, V domains shown)
VH: QVQLVQSGAEVKKPGASVKVSCKASGYTFTSYWMHWVRQRPGQGLEWIGNINPSNGGTNYNEKFKSRATMTRDTSTSTAYMELSSLRSEDTAVYYCELGQGYWGQGTLVTVSS
VL: DIVITQDELSNPVTSGESVSISCRSSKSLLYKDGKTYLNWFLQRPGQSPQLLIYLMSTRASGVSDRFSGSGSGTDFTLEISRVKAEDVGVYYCQQLVEYPLTFGAGTKLELKR
koff [1]: 0.00595 s⁻¹

B7: H19L16 (antibody, human IgG1, kappa, V domains shown)
VH: QVQLVQSGAEVKKPGASVKVSCKASGYTFTSYWMHWVRQRPGQGLEWIGNINPSNGGTNYNEKFKSRATMTRDTSTSTAYMELSSLRSEDTAVYYCELGQGYWGQGTLVTVSS
VL: DIVMTQSPLSNPVTLGQPVSISCRSSKSLLYKDGKTYLNWFLQRPGQSPQLLIYLMSTRASGVPDRFSGGGSGTDFTLKISRVEAEDVGVYYCQQLVEYPLTFGQGTKLEIKR
koff [1]: 0.00873 s⁻¹

B9: H6L13 (antibody, human IgG1, kappa, V domains shown)
VH: QVQLVQSGAEVKKPGASVKVSCKASGYTFTSYWMHWVRQAPGQGLEWIGNINPSNGGTNYNEKFKSRATMTRDTSTSTAYMELSSLRSEDTAVYYCELGQGYWGQGTLVTVSS
VL: DIVMTQSPLSLPVTLGQPASISCRSSKSLLYKDGKTYLNWFQQRPGQSPQLLIYLMSTRASGVPDRFSGGGSGTDFTLKISRVEAEDVGVYYCQQLVEYPLTFGQGTKLEIKR
Kd [2]: 6.4 nM
koff [2]: 0.014 s⁻¹
kon [2]: 2.2e+06 M⁻¹ s⁻¹
Kd [3]: 8.1 nM
koff [3]: 0.0155 s⁻¹
kon [3]: 1.91e+06 M⁻¹ s⁻¹
Kd [4]: 7.76 nM
koff [4]: 0.0157 s⁻¹
kon [4]: 2.02e+06 M⁻¹ s⁻¹

B10: H19L13 (antibody, human IgG1, kappa, V domains shown)
VH: QVQLVQSGAEVKKPGASVKVSCKASGYTFTSYWMHWVRQRPGQGLEWIGNINPSNGGTNYNEKFKSRATMTRDTSTSTAYMELSSLRSEDTAVYYCELGQGYWGQGTLVTVSS
VL: DIVMTQSPLSLPVTLGQPASISCRSSKSLLYKDGKTYLNWFQQRPGQSPQLLIYLMSTRASGVPDRFSGGGSGTDFTLKISRVEAEDVGVYYCQQLVEYPLTFGQGTKLEIKR
koff [1]: 0.013 s⁻¹

B14: H1L11 (antibody, human IgG1, kappa, V domains shown)
VH: QVQLVQSGAEVKKPGASVKVSCKASGYTFTSYWMHWVRQAPGQGLEWMGNINPSNGGTNYNEKFKSRVTMTRDTSTSTVYMELSSLRSEDTAVYYCELGQGYWGQGTLVTVSS
VL: DIVITQSPLSLPVTLGQPASISCRSSKSLLYKDGKTYLNWFQQRPGQSPQLLIYLMSTRASGVPDRFSGGGSGTDFTLKISRVEAEDVGVYYCQQLVEYPLTFGQGTKLEIKR
koff [1]: 0.0196 s⁻¹
Kd [2]: 22.3 nM
koff [2]: 0.031 s⁻¹
kon [2]: 1.4e+06 M⁻¹ s⁻¹
Kd [3]: 18.4 nM
koff [3]: 0.0219 s⁻¹
kon [3]: 1.19e+06 M⁻¹ s⁻¹
Kd [4]: 21 nM
koff [4]: 0.0282 s⁻¹
kon [4]: 1.34e+06 M⁻¹ s⁻¹

B15: H16L18 (antibody, human IgG1, kappa, V domains shown)
VH: QVQLVQSGAEVKKPGASVKVSCKASGYTFTSYWMHWVKQRPGQGLEWIGNINPSNGGTNYNEKFKSKATLTVDKSTSTAYMELSSLRSEDTAVYYCELGQGYWGQGTLVTVSS
VL: DIVMTQDPLSNPVTLGQPVSISCRSSKSLLYKDGKTYLNWFLQRPGQSPQLLIYLMSTRASGVSDRFSGSGSGTDFTLKISRVEAEDVGVYYCQQLVEYPLTFGQGTKLEIKR
koff [1]: 0.00566 s⁻¹

B16: H16L13 (antibody, human IgG1, kappa)
heavy: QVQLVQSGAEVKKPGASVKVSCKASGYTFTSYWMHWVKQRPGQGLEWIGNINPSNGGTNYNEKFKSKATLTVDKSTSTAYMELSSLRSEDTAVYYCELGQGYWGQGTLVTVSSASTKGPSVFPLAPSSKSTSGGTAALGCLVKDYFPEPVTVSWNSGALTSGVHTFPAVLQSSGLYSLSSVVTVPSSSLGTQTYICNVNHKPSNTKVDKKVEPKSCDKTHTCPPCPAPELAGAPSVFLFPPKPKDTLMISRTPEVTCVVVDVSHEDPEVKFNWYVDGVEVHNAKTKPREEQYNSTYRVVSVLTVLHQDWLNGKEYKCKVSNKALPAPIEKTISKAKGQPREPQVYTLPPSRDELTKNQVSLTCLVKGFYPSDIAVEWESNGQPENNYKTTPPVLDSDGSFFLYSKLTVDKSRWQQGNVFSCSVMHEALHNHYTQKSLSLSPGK
light: DIVMTQSPLSLPVTLGQPASISCRSSKSLLYKDGKTYLNWFQQRPGQSPQLLIYLMSTRASGVPDRFSGGGSGTDFTLKISRVEAEDVGVYYCQQLVEYPLTFGQGTKLEIKRTVAAPSVFIFPPSDEQLKSGTASVVCLLNNFYPREAKVQWKVDNALQSGNSQESVTEQDSKDSTYSLSSTLTLSKADYEKHKVYACEVTHQGLSSPVTKSFNRGEC
koff [1]: 0.0138 s⁻¹
Kd [3]: 2.53 nM
koff [3]: 0.0121 s⁻¹
kon [3]: 4.76e+06 M⁻¹ s⁻¹
